In patent US12698507B2, “Methods and compositions for conferring and/or enhancing herbicide tolerance using protoporphyrinogen IX oxidase of various cyanobacteria or variant thereof” (FarmHannong Co., Ltd., priority 2019, dated 2026):
Positions count from the first letter of the chain named. Names and notes keep the numbering of the source.

B1: CyPPO19 A167L + V305M + F360T: variant of CyPPO19 PPO protein (SEQ ID NO: 1) (protein)
chain: MSEVDVAIVGGGLSGLSLAWRLQQSAPQYSVVLLEASDRLGGNITTQTAEGFVWELGPNSFAPTPALLQLIAEVGLQSELIRGDRHLPRYIYWRGQLYPLQPTRPLALATSNLLSPWGKVRAALGALGFVPPYLGSGDESVNSFFRRHLGQEVAERLVAPFVSGVYLGDPQQLSAAAAFRRIAQLEKLGGGLIAGALHLRRQQAPKPKPPTSVQMRPGELGSFKEGLAALPRAIAQQLKAPIHLQTPVQEITPDPKGGYLLRSGEQTWRARSVVLATPAYQTAELVAPFQPAIARVLATIPYPTMACVVLAYPAGLGRSVRPGFGVLIPRSQGIRTLGTIWSSCLFPQRTPAGWQVFTSTIGGATDPDLASLSEEAIVQQVQQDLNRLLDLPAAKARLLGMKVWRRAIPQYMVGYPEQWQQVTHALSQTPGLFLCSNYAEGVALGDRVEHGNRTAAAVAAYLSGGQP
modifications: Synthetic_PPO of Thermosynechococcus elongatus PKUAC-SCTE542 (comprising GenBank No. CP032152.1)
B2: CyPPO19 V305M + L327T + F360I: variant of CyPPO19 PPO protein (SEQ ID NO: 1) (protein)
chain: B1 chain with L167A, L327T, T360I
modifications: Synthetic_PPO of Thermosynechococcus elongatus PKUAC-SCTE542 (comprising GenBank No. CP032152.1)
B3: CyPPO19 A167L + I408R + F360L: variant of CyPPO19 PPO protein (SEQ ID NO: 1) (protein)
chain: B1 chain with M305V, T360L, I408R
modifications: Synthetic_PPO of Thermosynechococcus elongatus PKUAC-SCTE542 (comprising GenBank No. CP032152.1)
B4: CyPPO19 A167C + I408W + F360I: variant of CyPPO19 PPO protein (SEQ ID NO: 1) (protein)
chain: B1 chain with L167C, M305V, T360I, I408W
modifications: Synthetic_PPO of Thermosynechococcus elongatus PKUAC-SCTE542 (comprising GenBank No. CP032152.1)
B5: CyPPO19 A167L + L327T + F360M: variant of CyPPO19 PPO protein (SEQ ID NO: 1) (protein)
chain: B1 chain with M305V, L327T, T360M
modifications: Synthetic_PPO of Thermosynechococcus elongatus PKUAC-SCTE542 (comprising GenBank No. CP032152.1)
B6: CyPPO19 A167I + L327T + F360V: variant of CyPPO19 PPO protein (SEQ ID NO: 1) (protein)
chain: B1 chain with L167I, M305V, L327T, T360V
modifications: Synthetic_PPO of Thermosynechococcus elongatus PKUAC-SCTE542 (comprising GenBank No. CP032152.1)
B7: CyPPO19 A167C + L327T + F360I: variant of CyPPO19 PPO protein (SEQ ID NO: 1) (protein)
chain: B1 chain with L167C, M305V, L327T, T360I
modifications: Synthetic_PPO of Thermosynechococcus elongatus PKUAC-SCTE542 (comprising GenBank No. CP032152.1)
B8: CyPPO19 V305L + L327T + F360V: variant of CyPPO19 PPO protein (SEQ ID NO: 1) (protein)
chain: B1 chain with L167A, M305L, L327T, T360V
modifications: Synthetic_PPO of Thermosynechococcus elongatus PKUAC-SCTE542 (comprising GenBank No. CP032152.1)
B9: CyPPO19 V305M + L327T + F360T: variant of CyPPO19 PPO protein (SEQ ID NO: 1) (protein)
chain: B1 chain with L167A, L327T
modifications: Synthetic_PPO of Thermosynechococcus elongatus PKUAC-SCTE542 (comprising GenBank No. CP032152.1)
B10: CyPPO19 A167I + I408W + F360V: variant of CyPPO19 PPO protein (SEQ ID NO: 1) (protein)
chain: B1 chain with L167I, M305V, T360V, I408W
modifications: Synthetic_PPO of Thermosynechococcus elongatus PKUAC-SCTE542 (comprising GenBank No. CP032152.1)

Test system: PPO-deficient BT3 E. coli (ΔPPO)
Assay: PPO-inhibiting herbicide tolerance test of PPO variants in E. coli (growth on herbicide-containing LB agar)
Type: cell-based
Details: CyPPO19 variants in BT3 (ΔPPO) E. coli; LB agar with 0 to 2,000 μM herbicide, 37° C., dark, 16-20 hours
In short: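 Tolerance was scored against wild-type enzyme: '−' for equal growth, one '+' per 10-fold gain, up to '+++++'. ΔPPO BT3 cells carrying variant plasmids, spotted as a 10-fold dilution series from OD600=0.5, grew 16-20 h at 37° C. in the dark on ampicillin LB agar containing 0 to 2,000 μM herbicide.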

| Molecule | tolerance level relative to wild type, Carfentrazone | tolerance level relative to wild type, Flumioxazin | tolerance level relative to wild type, Fomesafen | tolerance level relative to wild type, Oxyfluorfen | tolerance level relative to wild type, Saflufenacil | tolerance level relative to wild type, Sulfentrazone | tolerance level relative to wild type, Tiafenacil |
| --- | --- | --- | --- | --- | --- | --- | --- |
| B1 | + (‘+’ per each 10-fold resistance) | +++++ (until ‘+++++’ as maximal resistance) | +++ (‘+’ per each 10-fold resistance) | +++ (‘+’ per each 10-fold resistance) | +++++ (until ‘+++++’ as maximal resistance) | +++++ (until ‘+++++’ as maximal resistance) | ++++ (‘+’ per each 10-fold resistance) |
| B2 | + (‘+’ per each 10-fold resistance) | ++++ (‘+’ per each 10-fold resistance) | + (‘+’ per each 10-fold resistance) | ++ (‘+’ per each 10-fold resistance) | ++ (‘+’ per each 10-fold resistance) | ++ (‘+’ per each 10-fold resistance) | ++++ (‘+’ per each 10-fold resistance) |
| B3 | + (‘+’ per each 10-fold resistance) | ++++ (‘+’ per each 10-fold resistance) | +++ (‘+’ per each 10-fold resistance) | +++ (‘+’ per each 10-fold resistance) | ++++ (‘+’ per each 10-fold resistance) | ++++ (‘+’ per each 10-fold resistance) | ++++ (‘+’ per each 10-fold resistance) |
| B4 | + (‘+’ per each 10-fold resistance) | +++++ (until ‘+++++’ as maximal resistance) | +++ (‘+’ per each 10-fold resistance) | +++ (‘+’ per each 10-fold resistance) | +++++ (until ‘+++++’ as maximal resistance) | +++++ (until ‘+++++’ as maximal resistance) | +++++ (until ‘+++++’ as maximal resistance) |
| B5 | + (‘+’ per each 10-fold resistance) | +++++ (until ‘+++++’ as maximal resistance) | +++ (‘+’ per each 10-fold resistance) | +++ (‘+’ per each 10-fold resistance) | +++++ (until ‘+++++’ as maximal resistance) | +++++ (until ‘+++++’ as maximal resistance) | +++++ (until ‘+++++’ as maximal resistance) |
| B6 | + (‘+’ per each 10-fold resistance) | +++++ (until ‘+++++’ as maximal resistance) | +++ (‘+’ per each 10-fold resistance) | +++ (‘+’ per each 10-fold resistance) | +++++ (until ‘+++++’ as maximal resistance) | +++++ (until ‘+++++’ as maximal resistance) | +++++ (until ‘+++++’ as maximal resistance) |
| B7 | + (‘+’ per each 10-fold resistance) | ++++ (‘+’ per each 10-fold resistance) | ++ (‘+’ per each 10-fold resistance) | +++ (‘+’ per each 10-fold resistance) | +++ (‘+’ per each 10-fold resistance) | ++++ (‘+’ per each 10-fold resistance) | ++++ (‘+’ per each 10-fold resistance) |
| B8 | + (‘+’ per each 10-fold resistance) | +++++ (until ‘+++++’ as maximal resistance) | + (‘+’ per each 10-fold resistance) | +++ (‘+’ per each 10-fold resistance) | +++ (‘+’ per each 10-fold resistance) | ++ (‘+’ per each 10-fold resistance) | +++++ (until ‘+++++’ as maximal resistance) |
| B9 | + (‘+’ per each 10-fold resistance) | +++ (‘+’ per each 10-fold resistance) | ++ (‘+’ per each 10-fold resistance) | ++ (‘+’ per each 10-fold resistance) | +++ (‘+’ per each 10-fold resistance) | +++ (‘+’ per each 10-fold resistance) | +++ (‘+’ per each 10-fold resistance) |
| B10 | + (‘+’ per each 10-fold resistance) | ++++ (‘+’ per each 10-fold resistance) | + (‘+’ per each 10-fold resistance) | ++ (‘+’ per each 10-fold resistance) | ++++ (‘+’ per each 10-fold resistance) | +++ (‘+’ per each 10-fold resistance) | ++++ (‘+’ per each 10-fold resistance) |
